Measurements from the supplement of paper PMC10899765.

How the values were obtained:
Conditions in all cases: 20 nM; 72 h
MCF10A [1] = experiment: one-nucleolus phenotype percent effect (relative to siNT 0% and siNOL11 100%); higher = more cells with one nucleolus (ribosome biogenesis inhibition)
Protocol: (§1)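 After 72 h, cells were fixed and stained with Hoechst and anti-fibrillarin, and nucleoli per nucleus were counted with CellProfiler. Values are plate-adjusted percent effect for the one-nucleolus and 5+ nucleoli phenotypes, normalised to siNT (0%) and to the positive controls siNOL11 or siKIF11 (100%), as the mean of biological triplicates. Percent viability is the nuclei count relative to siNT.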

MCF10A [2] = experiment: percent viability (nuclei count relative to siNT); higher = more viable cells
Protocol: as §1

MCF10A [3] = experiment: 5+ nucleoli phenotype percent effect (relative to siNT 0% and siKIF11 100%); higher = more cells with five or more nucleoli
Protocol: as §1

Row | Sequence | one-nucleolus phenotype percent effect (MCF10A [1]) | percent viability (MCF10A [2]) | 5+ nucleoli phenotype percent effect (MCF10A [3])
1 | AGGCAUUGACUUCUCACUAGCU [hsa-miR-1256] | 1.57% | 32.9% | 2.63%
2 | AGGCCAUCAGCAGUCCAAUGAA [hsa-miR-4529-5p] | 2.62% | 52.1% | 9.36%
3 | AGGCCCUGUCCUCUGCCCCAG [hsa-miR-6775-3p] | 12.8% | 41.3% | 11.1%
4 | AGGCCUCUGUGACGUCACGGUGU [hsa-miR-4757-5p] | -11.7% | 62.5% | 66.8%
5 | AGGCCUGUGGCUCCUCCCUCAG [hsa-miR-6735-3p] | -1.31% | 50.4% | 15.7%
6 | AGGCGAUGUGGGGAUGUAGAGA [hsa-miR-6717-5p] | 19.4% | 30.5% | -15.8%
7 | AGGCGCACCCGACCACAUGC [hsa-miR-6722-5p] | 26.5% | 22.4% | -18.7%
8 | AGGCGGGGCGCCGCGGGACCGC [hsa-miR-663a] | 0.191% | 62.8% | 2.91%
9 | AGGCUCUAACUGGCUUUCCCUGCA [hsa-miR-6822-3p] | 32.4% | 37.9% | -24.9%
10 | AGGCUGCGGAAUUCAGGAC [hsa-miR-604] | 29.2% | 25.6% | -15.7%
11 | AGGCUGGAGUGAGCGGAG [hsa-miR-4430] | 57.5% | 12.7% | -22%
12 | AGGCUGGGCUGGGACGGA [hsa-miR-4505] | 32.2% | 12.3% | 21.9%
13 | AGGCUGUGAUGCUCUCCUGAGCCC [hsa-miR-7974] | 30.5% | 22.8% | -12%
14 | AGGGAAAAAAAAAAGGAUUUGUC [hsa-miR-4668-5p] | -20.9% | 65% | 61.6%
15 | AGGGAAGGAGGCUUGGUCUUAG [hsa-miR-4747-5p] | -5.76% | 29.6% | 11.6%
16 | AGGGAAGGGGACGAGGGUUGGG [hsa-miR-5196-5p] | 5.32% | 40.5% | 4.34%
17 | AGGGACCUGAGUGUCUAAG [hsa-miR-3649] | 9.08% | 71% | -0.628%
18 | AGGGACGGGACGCGGUGCAGUG [hsa-miR-92b-5p] | 2.12% | 75.4% | 34.3%
19 | AGGGACUGCCUUAGGAGAAAGUU [hsa-miR-3199] | -15.3% | 57.4% | 42.9%
20 | AGGGACUUUCAGGGGCAGCUGU [hsa-miR-365b-5p] | 4.45% | 36.2% | 19.9%
21 | AGGGACUUUUGGGGGCAGAUGUG [hsa-miR-365a-5p] | -13.1% | 56% | 58.6%
22 | AGGGAGAAAGCUAGAAGCUGAAG [hsa-miR-6878-5p] | -18.3% | 72.6% | 44.5%
23 | AGGGAGGGACGGGGGCUGUGC [hsa-miR-149-3p] | 42.9% | 15.1% | -16.6%
24 | AGGGAGGGUGUGGUAUGGAUGU [hsa-miR-6883-5p] | 8.82% | 42% | -4.87%

Row | Sequence | one-nucleolus phenotype percent effect (MCF10A [1]) | percent viability (MCF10A [2]) | 5+ nucleoli phenotype percent effect (MCF10A [3])
25 | AGGGAUCGCGGGCGGGUGGCGGCCU [hsa-miR-638] | -7.05% | 88% | 9.85%
26 | AGGGCAUAGGAGAGGGUUGAUAU [hsa-miR-3945] | -1.06% | 27.2% | 34.8%
27 | AGGGCAUGUCCAGGGGGU [hsa-miR-4253] | 18.3% | 28.5% | 17.7%
28 | AGGGCCAGAGGAGCCUGGAGUGG [hsa-miR-4726-5p] | 5.63% | 50.1% | 18.8%
29 | AGGGCCCCCCCUCAAUCCUGU [hsa-miR-296-5p] | 2.62% | 49.5% | 11.6%
30 | AGGGCCGAAGGGUGGAAGCUGC [hsa-miR-6877-5p] | 10.5% | 41.7% | -6.96%
31 | AGGGCUGGACUCAGCGGCGGAGCU [hsa-miR-5001-5p] | 23.3% | 42.6% | -6.45%
32 | AGGGCUUAGCUGCUUGUGAGCA [hsa-miR-27a-5p] | 23.8% | 19.8% | -11.3%
33 | AGGGGACCAAAGAGAUAUAUAG [hsa-miR-3144-5p] | -9.41% | 38.1% | 33.4%
34 | AGGGGACUGGUUAAUAGAACUA [hsa-miR-4652-5p] | 47.2% | 14.5% | -5.22%
35 | AGGGGCUGGCUUUCCUCUGGUC [hsa-miR-185-3p] | 49.9% | 22.6% | -3.46%
36 | AGGGGGAAAGUUCUAUAGUCC [hsa-miR-625-5p] | 21.3% | 12.6% | -16.9%
37 | AGGGGGAUGGCAGAGCAAAAUU [hsa-miR-5010-5p] | 13.7% | 44.2% | -7.77%
38 | AGGGGGCGCAGUCACUGACGUG [hsa-miR-4697-5p] | 5.16% | 18.2% | -0.0636%
39 | AGGGGGCGGGCUCCGGCG [hsa-miR-4488] | -5.44% | 70.5% | 8.35%
40 | AGGGGGGCACUGCGCAAGCAAAGCC [hsa-miR-6885-5p] | 16.6% | 42.5% | -29.8%
41 | AGGGGGUAGAAAGUGGCUGAAG [hsa-miR-6835-5p] | 11.4% | 14.9% | -24.3%
42 | AGGGGUGCUAUCUGUGAUUGA [hsa-miR-342-5p] | 15.1% | 10.5% | -43.4%
43 | AGGGGUGGUGUUGGGACAGCUCCGU [hsa-miR-608] | 8.02% | 10.6% | -9.99%
44 | AGGGGUGUGGAAAGAGGCAGAACA [hsa-miR-6747-5p] | -4.28% | 40% | 37.7%
45 | AGGGUAAGCUGAACCUCUGAU [hsa-miR-555] | 17.6% | 32.4% | -11.2%
46 | AGGGUGGGGCUGGAGGUGGGGCU [hsa-miR-6756-5p] | 3.98% | 42% | -11%
47 | AGGGUGUGUGUGUUUUU [hsa-miR-4455] | 3.96% | 22.4% | 13.6%
48 | AGGGUGUUUCUCUCAUCUCU [hsa-miR-609] | -18.6% | 74% | 53.7%
